# Measured values as given in patent US20170137467A1 (CHROMOTEK, published 2017).
# Where a chain is given by its changes, count along the chain named.
# B1: BC2 nanobody (BC2-Nb) (VHH)
# VHH: QVQLVESGGGLVQPGGSLTLSCTASGFTLDHYDIGWFRQAPGKEREGVSCINNSDDDTYYADSVKGRFTIFMDNAKDTVYLQMNSLKPEDTAIYYCAEARGCKRGRYEYDFWGQGTQVTVSS
# notes: immobilised on agarose/sepharose beads in this assay; also called BC2 nanotrap (immobilised form); not shown: C-terminal 6xHis-tag added by pHEN6 vector
# B2: BC2 nanobody (VHH)
# VHH: B1 VHH
# notes: immobilised on beads in this assay; also called BC2-Nb; BC2 nanotrap (immobilised)
# B3: BC2-NbR106S (VHH)
# VHH: B1 VHH with R106S
# notes: immobilised on beads in this assay; not shown: C-terminal 6xHis-tag added by pHEN6 vector
# B4: BC2-NbR106E (VHH)
# VHH: B1 VHH with R106E
# notes: as for B3
# B5: BC2-NbR106S (VHH)
# VHH: B1 VHH with R106S
# notes: headlock mutant of BC2-Nb; immobilised on beads in this assay
# Assays:
# [1] = biological target: T1, BC2T V7G (human); assay: library pulldown, LC-MS of supernatant; ratio vs GFP-Nb control (0=captured, 1=not captured)
# T1 construct: position 7 library, row G
# T1 peptide: Ac-PDRKAAGSHWQQ-NH2
# From the text: (§1) In total, 12 different BC2T libraries displaying all 20 proteinogenic amino acids in one single position of the peptide were used in immunoprecipitation experiments. […] The direct comparison with the GFP-Nb made it possible to determine the quantitative degree of peptide capture without the need of labeled standards. […] The more peptide was captured the more the value approximates 0. It was not possible to discriminate between isoleucine (I) and leucine (L) peptide versions since these peptides are isobaric.
# (§2) To investigate the binding specificity of the BC2T and derived mutants peptide libraries for each amino acid position of the sequence […] (SEQ ID NO:4) were synthesized with acetyl and amide groups located at the N-termini or C-termini respectively (Intavis). […] Incubations were performed in 300 μl PBS/0.01% CHAPS for 1 h on a HulaMixer (Life Technologies). Subsequent to a centrifugation step 10 μl supernatant were analyzed in a LC-MS procedure. Peptides were separated using an UltiMate3000 RSLCnano System (Thermo Scientific), composed of a C18 PepMap100μ-Precolumn (300 μm×5 mm; particle size: 5 μm; pore size: 100 Å—Thermo Scientific) and a C18 analytical column (Acclaim Rapid Separation LC (RSLC) Column: 150 mm×5 mm; particle size: 2.2 μm; pore size: 100 Å—Thermo Scientific). A step gradient was applied starting at 8% and ending after 20 min at 30% eluent B (80% acetonitrile, 20% H₂O, 0.1% formic acid).
# [2] = biological target: T2, BC2T K4(I/L1); assay: as above
# T2 construct: position 4 library, row I/L1
# From the text: as §1, §2
# [3] = biological target: T3, BC2T A5V (human); assay: as above
# T3 construct: position 5 library, row V
# T3 peptide: Ac-PDRKVAVSHWQQ-NH2
# From the text: as §1, §2
# [4] = biological target: T4, BC2T A6(I/L1); assay: as above
# T4 construct: position 6 library (BC2TA6X), row I/L1
# From the text: as §1, §2
# [5] = biological target: T5, BC2T A6G (human); assay: as above
# T5 construct: position 6 library (BC2TA6X), row G
# T5 peptide: Ac-PDRKAGVSHWQQ-NH2
# From the text: as §1, §2
# [6] = biological target: T6, BC2T P1(I/L2); assay: as above
# T6 construct: position 1 library, row I/L2
# From the text: as §1, §2
# [7] = biological target: T7, BC2T A5(I/L2); assay: as above
# T7 construct: position 5 library, row I/L2
# From the text: as §1, §2
# [8] = biological target: T8, BC2T K4M (human); assay: as above
# T8 construct: position 4 library, row M
# T8 peptide: Ac-PDRMAAVSHWQQ-NH2
# From the text: as §1, §2
# [9] = biological target: T9, BC2T D2(I/L1); assay: as above
# T9 construct: position 2 library, row I/L1
# From the text: as §1, §2
# [10] = biological target: T10, BC2T K4G (human); assay: as above
# T10 construct: position 4 library, row G
# T10 peptide: Ac-PDRGAAVSHWQQ-NH2
# From the text: as §1, §2
# [11] = biological target: T11, BC2T V7A (human); assay: as above
# T11 construct: position 7 library, row A
# T11 peptide: Ac-PDRKAAASHWQQ-NH2
# From the text: as §1, §2
# [12] = biological target: T12, BC2T A6(I/L2); assay: as above
# T12 construct: position 6 library (BC2TA6X), row I/L2
# From the text: as §1, §2
# [13] = biological target: T13, BC2T R3G (human); assay: as above
# T13 construct: position 3 library (BC2TR3X), row G
# T13 peptide: Ac-PDGKAAVSHWQQ-NH2
# From the text: as §1, §2
# [14] = biological target: T14, BC2T V7(I/L1); assay: as above
# T14 construct: position 7 library, row I/L1
# From the text: as §1, §2
# [15] = biological target: T15, BC2T R3(I/L1); assay: as above
# T15 construct: position 3 library (BC2TR3X), row I/L1
# From the text: as §1, §2
# [16] = biological target: T16, BC2T P1(I/L1); assay: as above
# T16 construct: position 1 library, row I/L1
# From the text: as §1, §2
# [17] = biological target: T17, BC2T Q11T; assay: positional peptide library pulldown on immobilised Nb, LC-MS of supernatant; signal ratio to control GFP-Nb (1 = not captured, near 0 = captured)
# T17 construct: positional scanning library member
# T17 peptide: Ac-PDRKAAVSHWTQ-NH2
# From the text: as §1, §2
# [18] = biological target: T18, BC2T W10V; assay: as above
# T18 construct: positional scanning library member
# T18 peptide: Ac-PDRKAAVSHVQQ-NH2
# From the text: as §1, §2
# [19] = biological target: T19, BC2T Q11M; assay: as above
# T19 construct: positional scanning library member
# T19 peptide: Ac-PDRKAAVSHWMQ-NH2
# From the text: as §1, §2
# [20] = biological target: T20, BC2T S8W; assay: as above
# T20 construct: positional scanning library member
# T20 peptide: Ac-PDRKAAVWHWQQ-NH2
# From the text: as §1, §2
# [21] = biological target: T21, BC2T W10G; assay: as above
# T21 construct: positional scanning library member
# T21 peptide: Ac-PDRKAAVSHGQQ-NH2
# From the text: as §1, §2
# [22] = biological target: T22, BC2T W10Q; assay: as above
# T22 construct: positional scanning library member
# T22 peptide: Ac-PDRKAAVSHQQQ-NH2
# From the text: as §1, §2
# [23] = biological target: T23, BC2T W10Y; assay: as above
# T23 construct: positional scanning library member
# T23 peptide: Ac-PDRKAAVSHYQQ-NH2
# From the text: as §1, §2
Binder,ratio [1],ratio [2],ratio [3],ratio [4],ratio [5],ratio [6],ratio [7],ratio [8],ratio [9],ratio [10],ratio [11],ratio [12],ratio [13],ratio [14],ratio [15],ratio [16],ratio [17],ratio [18],ratio [19],ratio [20],other results
B1,0.7,0.1,0.1,0.7,0.7,0.3,0.1,0.1,0.1,0.6,0.4,0.9,0.9,0.1,0.5,0.4,–,–,–,–,–
B2,–,–,–,–,–,–,–,–,–,–,–,–,–,–,–,–,0.1,1,0.1,0.6,ratio [21]: 1.2; ratio [22]: 1.1; ratio [23]: 1
B3,0.8,0.4,0.2,0.8,0.9,0.6,0.2,0.5,0.2,0.9,0.7,0.9,1,0.3,0.9,0.7,–,–,–,–,–
B4,0.7,0.3,0.1,0.7,0.8,0.5,0.1,0.3,0.1,0.9,0.5,0.8,1,0.1,0.9,0.6,–,–,–,–,–
B5,–,–,–,–,–,–,–,–,–,–,–,–,–,–,–,–,0.2,1,0.3,0.9,ratio [21]: 1.1; ratio [22]: 1.1; ratio [23]: 1
